Laboratory results published in patent US20140206609A1 (Sanofi, published 2014).
*1 amine or outer side, *2 acyl side, *3 side chain or, on linkers, in order; H or OH if unused. Where no end group is shown, it is not given here. Side-chain parts run from the residue outwards. [ ]: non-standard residue; d: D form. The star is where a group is joined. γGlu = O=C(O)[C@H](CCC(=O)[*:2])N[*:1]; Palmitoyl = CCCCCCCCCCCCCCCC(=O)*; Nle = CCCC[C@H](N)C(=O)O; Aib = CC(C)(N)C(=O)O

T1: human GIP receptor (human, UniProt P48546 22-466)
T1 sequence (looked up): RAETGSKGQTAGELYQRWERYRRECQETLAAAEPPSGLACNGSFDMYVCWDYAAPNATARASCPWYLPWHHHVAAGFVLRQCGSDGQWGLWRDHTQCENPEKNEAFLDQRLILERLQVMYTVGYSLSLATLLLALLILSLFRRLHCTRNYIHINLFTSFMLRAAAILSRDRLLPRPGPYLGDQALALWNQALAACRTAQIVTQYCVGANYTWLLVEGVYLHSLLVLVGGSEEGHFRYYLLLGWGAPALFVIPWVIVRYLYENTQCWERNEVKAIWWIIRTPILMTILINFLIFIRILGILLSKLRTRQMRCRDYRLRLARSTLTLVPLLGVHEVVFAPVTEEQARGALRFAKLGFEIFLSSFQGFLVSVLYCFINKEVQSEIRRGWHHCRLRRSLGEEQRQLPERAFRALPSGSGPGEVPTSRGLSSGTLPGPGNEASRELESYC

B1: SEQ ID NO: 40 (peptide)
peptide: Y[Aib]QGTFTSDLSIQLESRAAQDFIEWLKAGGPSSGAPPPS-NH2
modifications: N-terminus assumed
SMILES: CC[C@H](C)[C@H](NC(=O)[C@H](Cc1ccccc1)NC(=O)[C@H](CC(=O)O)NC(=O)[C@H](CCC(N)=O)NC(=O)[C@H](C)NC(=O)[C@H](C)NC(=O)[C@H](CCCNC(=N)N)NC(=O)[C@H](CO)NC(=O)[C@H](CCC(=O)O)NC(=O)[C@H](CC(C)C)NC(=O)[C@H](CCC(N)=O)NC(=O)[C@@H](NC(=O)[C@H](CO)NC(=O)[C@H](CC(C)C)NC(=O)[C@H](CC(=O)O)NC(=O)[C@H](CO)NC(=O)[C@@H](NC(=O)[C@H](Cc1ccccc1)NC(=O)[C@@H](NC(=O)CNC(=O)[C@H](CCC(N)=O)NC(=O)C(C)(C)NC(=O)[C@@H](N)Cc1ccc(O)cc1)[C@@H](C)O)[C@@H](C)O)[C@@H](C)CC)C(=O)N[C@@H](CCC(=O)O)C(=O)N[C@@H](Cc1c[nH]c2ccccc12)C(=O)N[C@@H](CC(C)C)C(=O)N[C@@H](CCCCN)C(=O)N[C@@H](C)C(=O)NCC(=O)NCC(=O)N1CCC[C@H]1C(=O)N[C@@H](CO)C(=O)N[C@@H](CO)C(=O)NCC(=O)N[C@@H](C)C(=O)N1CCC[C@H]1C(=O)N1CCC[C@H]1C(=O)N1CCC[C@H]1C(=O)N[C@@H](CO)C(N)=O
B2: SEQ ID NO: 41 (peptide)
peptide: Y[Aib]EGTFTSDLSIQ[Nle]EKRAA[Aib]EFIEWLKNTGPSSGAPPPS-NH2
modifications: N-terminus assumed
SMILES: CCCC[C@H](NC(=O)[C@H](CCC(N)=O)NC(=O)[C@@H](NC(=O)[C@H](CO)NC(=O)[C@H](CC(C)C)NC(=O)[C@H](CC(=O)O)NC(=O)[C@H](CO)NC(=O)[C@@H](NC(=O)[C@H](Cc1ccccc1)NC(=O)[C@@H](NC(=O)CNC(=O)[C@H](CCC(=O)O)NC(=O)C(C)(C)NC(=O)[C@@H](N)Cc1ccc(O)cc1)[C@@H](C)O)[C@@H](C)O)[C@@H](C)CC)C(=O)N[C@@H](CCC(=O)O)C(=O)N[C@@H](CCCCN)C(=O)N[C@@H](CCCNC(=N)N)C(=O)N[C@@H](C)C(=O)N[C@@H](C)C(=O)NC(C)(C)C(=O)N[C@@H](CCC(=O)O)C(=O)N[C@@H](Cc1ccccc1)C(=O)N[C@H](C(=O)N[C@@H](CCC(=O)O)C(=O)N[C@@H](Cc1c[nH]c2ccccc12)C(=O)N[C@@H](CC(C)C)C(=O)N[C@@H](CCCCN)C(=O)N[C@@H](CC(N)=O)C(=O)N[C@H](C(=O)NCC(=O)N1CCC[C@H]1C(=O)N[C@@H](CO)C(=O)N[C@@H](CO)C(=O)NCC(=O)N[C@@H](C)C(=O)N1CCC[C@H]1C(=O)N1CCC[C@H]1C(=O)N1CCC[C@H]1C(=O)N[C@@H](CO)C(N)=O)[C@@H](C)O)[C@@H](C)CC
B3: SEQ ID NO: 35 (peptide)
peptide: Y[Aib]EGTFTSDLSIQK([γGlu-Palmitoyl])ESRAA[Aib]EFIEWLKAGGPSSGAPPPS-NH2
modifications: N-terminus assumed
SMILES: CCCCCCCCCCCCCCCC(=O)N[C@@H](CCC(=O)NCCCC[C@H](NC(=O)[C@H](CCC(N)=O)NC(=O)[C@@H](NC(=O)[C@H](CO)NC(=O)[C@H](CC(C)C)NC(=O)[C@H](CC(=O)O)NC(=O)[C@H](CO)NC(=O)[C@@H](NC(=O)[C@H](Cc1ccccc1)NC(=O)[C@@H](NC(=O)CNC(=O)[C@H](CCC(=O)O)NC(=O)C(C)(C)NC(=O)[C@@H](N)Cc1ccc(O)cc1)[C@@H](C)O)[C@@H](C)O)[C@@H](C)CC)C(=O)N[C@@H](CCC(=O)O)C(=O)N[C@@H](CO)C(=O)N[C@@H](CCCNC(=N)N)C(=O)N[C@@H](C)C(=O)N[C@@H](C)C(=O)NC(C)(C)C(=O)N[C@@H](CCC(=O)O)C(=O)N[C@@H](Cc1ccccc1)C(=O)N[C@H](C(=O)N[C@@H](CCC(=O)O)C(=O)N[C@@H](Cc1c[nH]c2ccccc12)C(=O)N[C@@H](CC(C)C)C(=O)N[C@@H](CCCCN)C(=O)N[C@@H](C)C(=O)NCC(=O)NCC(=O)N1CCC[C@H]1C(=O)N[C@@H](CO)C(=O)N[C@@H](CO)C(=O)NCC(=O)N[C@@H](C)C(=O)N1CCC[C@H]1C(=O)N1CCC[C@H]1C(=O)N1CCC[C@H]1C(=O)N[C@@H](CO)C(N)=O)[C@@H](C)CC)C(=O)O
B4: SEQ ID NO: 37 (peptide)
peptide: Y[Aib]QGTFTSDLSIQK([γGlu-Palmitoyl])DSRAAQDFIEWLKAGGPSSGAPPPS-NH2
modifications: N-terminus assumed
SMILES: CCCCCCCCCCCCCCCC(=O)N[C@@H](CCC(=O)NCCCC[C@H](NC(=O)[C@H](CCC(N)=O)NC(=O)[C@@H](NC(=O)[C@H](CO)NC(=O)[C@H](CC(C)C)NC(=O)[C@H](CC(=O)O)NC(=O)[C@H](CO)NC(=O)[C@@H](NC(=O)[C@H](Cc1ccccc1)NC(=O)[C@@H](NC(=O)CNC(=O)[C@H](CCC(N)=O)NC(=O)C(C)(C)NC(=O)[C@@H](N)Cc1ccc(O)cc1)[C@@H](C)O)[C@@H](C)O)[C@@H](C)CC)C(=O)N[C@@H](CC(=O)O)C(=O)N[C@@H](CO)C(=O)N[C@@H](CCCNC(=N)N)C(=O)N[C@@H](C)C(=O)N[C@@H](C)C(=O)N[C@@H](CCC(N)=O)C(=O)N[C@@H](CC(=O)O)C(=O)N[C@@H](Cc1ccccc1)C(=O)N[C@H](C(=O)N[C@@H](CCC(=O)O)C(=O)N[C@@H](Cc1c[nH]c2ccccc12)C(=O)N[C@@H](CC(C)C)C(=O)N[C@@H](CCCCN)C(=O)N[C@@H](C)C(=O)NCC(=O)NCC(=O)N1CCC[C@H]1C(=O)N[C@@H](CO)C(=O)N[C@@H](CO)C(=O)NCC(=O)N[C@@H](C)C(=O)N1CCC[C@H]1C(=O)N1CCC[C@H]1C(=O)N1CCC[C@H]1C(=O)N[C@@H](CO)C(N)=O)[C@@H](C)CC)C(=O)O
B5: SEQ ID NO: 34 (peptide)
peptide: Y[Aib]EGTFTSDLSIQK([γGlu-Palmitoyl])EKRAAQEFIEWLKAGGPSSGAPPPS-NH2
modifications: N-terminus assumed
SMILES: CCCCCCCCCCCCCCCC(=O)N[C@@H](CCC(=O)NCCCC[C@H](NC(=O)[C@H](CCC(N)=O)NC(=O)[C@@H](NC(=O)[C@H](CO)NC(=O)[C@H](CC(C)C)NC(=O)[C@H](CC(=O)O)NC(=O)[C@H](CO)NC(=O)[C@@H](NC(=O)[C@H](Cc1ccccc1)NC(=O)[C@@H](NC(=O)CNC(=O)[C@H](CCC(=O)O)NC(=O)C(C)(C)NC(=O)[C@@H](N)Cc1ccc(O)cc1)[C@@H](C)O)[C@@H](C)O)[C@@H](C)CC)C(=O)N[C@@H](CCC(=O)O)C(=O)N[C@@H](CCCCN)C(=O)N[C@@H](CCCNC(=N)N)C(=O)N[C@@H](C)C(=O)N[C@@H](C)C(=O)N[C@@H](CCC(N)=O)C(=O)N[C@@H](CCC(=O)O)C(=O)N[C@@H](Cc1ccccc1)C(=O)N[C@H](C(=O)N[C@@H](CCC(=O)O)C(=O)N[C@@H](Cc1c[nH]c2ccccc12)C(=O)N[C@@H](CC(C)C)C(=O)N[C@@H](CCCCN)C(=O)N[C@@H](C)C(=O)NCC(=O)NCC(=O)N1CCC[C@H]1C(=O)N[C@@H](CO)C(=O)N[C@@H](CO)C(=O)NCC(=O)N[C@@H](C)C(=O)N1CCC[C@H]1C(=O)N1CCC[C@H]1C(=O)N1CCC[C@H]1C(=O)N[C@@H](CO)C(N)=O)[C@@H](C)CC)C(=O)O
B6: SEQ ID NO: 36 (peptide)
peptide: Y[Aib]EGTFTSDLSIQK([γGlu-Palmitoyl])EKRAA[Aib]EFIEWLKAGGPSSGAPPPS-NH2
modifications: N-terminus assumed
SMILES: CCCCCCCCCCCCCCCC(=O)N[C@@H](CCC(=O)NCCCC[C@H](NC(=O)[C@H](CCC(N)=O)NC(=O)[C@@H](NC(=O)[C@H](CO)NC(=O)[C@H](CC(C)C)NC(=O)[C@H](CC(=O)O)NC(=O)[C@H](CO)NC(=O)[C@@H](NC(=O)[C@H](Cc1ccccc1)NC(=O)[C@@H](NC(=O)CNC(=O)[C@H](CCC(=O)O)NC(=O)C(C)(C)NC(=O)[C@@H](N)Cc1ccc(O)cc1)[C@@H](C)O)[C@@H](C)O)[C@@H](C)CC)C(=O)N[C@@H](CCC(=O)O)C(=O)N[C@@H](CCCCN)C(=O)N[C@@H](CCCNC(=N)N)C(=O)N[C@@H](C)C(=O)N[C@@H](C)C(=O)NC(C)(C)C(=O)N[C@@H](CCC(=O)O)C(=O)N[C@@H](Cc1ccccc1)C(=O)N[C@H](C(=O)N[C@@H](CCC(=O)O)C(=O)N[C@@H](Cc1c[nH]c2ccccc12)C(=O)N[C@@H](CC(C)C)C(=O)N[C@@H](CCCCN)C(=O)N[C@@H](C)C(=O)NCC(=O)NCC(=O)N1CCC[C@H]1C(=O)N[C@@H](CO)C(=O)N[C@@H](CO)C(=O)NCC(=O)N[C@@H](C)C(=O)N1CCC[C@H]1C(=O)N1CCC[C@H]1C(=O)N1CCC[C@H]1C(=O)N[C@@H](CO)C(N)=O)[C@@H](C)CC)C(=O)O

target: T2, human GLP-1 receptor (human, UniProt P43220 24-463); test: cell-based or functional assay

Row | Binder | EC50 hGLP-1 R [pM]
1 | B1 | 3.2 pM
2 | B2 | 11.2 pM

target: T1, human GIP receptor; test: cell-based or functional assay

Row | Binder | EC50 hGIP R [pM]
3 | B1 | 858 pM
4 | B2 | 449 pM

target: human glucagon receptor (human, UniProt P47871 26-477); test: cell-based or functional assay
Sequence (P47871 26-477): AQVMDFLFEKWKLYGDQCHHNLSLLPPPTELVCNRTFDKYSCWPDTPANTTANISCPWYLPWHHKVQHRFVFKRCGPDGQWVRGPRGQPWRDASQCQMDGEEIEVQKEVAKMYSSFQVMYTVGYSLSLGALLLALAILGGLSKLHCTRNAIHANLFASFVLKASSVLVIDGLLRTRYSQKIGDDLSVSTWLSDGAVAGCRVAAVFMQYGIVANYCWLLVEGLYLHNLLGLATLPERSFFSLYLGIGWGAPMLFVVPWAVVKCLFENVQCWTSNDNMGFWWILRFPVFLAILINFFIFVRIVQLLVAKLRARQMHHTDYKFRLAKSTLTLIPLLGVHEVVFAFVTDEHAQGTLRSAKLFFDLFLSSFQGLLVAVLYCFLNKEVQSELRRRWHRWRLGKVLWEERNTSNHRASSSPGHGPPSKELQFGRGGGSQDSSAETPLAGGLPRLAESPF

Row | Binder | EC50 hGLUC R [pM]
5 | B3 | 39100 pM
6 | B4 | 32 pM
7 | B5 | 11600 pM
8 | B6 | 5780 pM

target: T2, human GLP-1 receptor; test: cell-based or functional assay; remark: another data set of the same source

Row | Binder | EC50 hGLP-1 R [pM]
9 | B3 | 6.9 pM
10 | B4 | 8.9 pM
11 | B5 | 4.6 pM
12 | B6 | 3.4 pM

target: T1, human GIP receptor; test: cell-based or functional assay; remark: another data set of the same source

Row | Binder | EC50 hGIP R [pM]
13 | B3 | 7.3 pM
14 | B4 | 21.2 pM
15 | B5 | 22.2 pM
16 | B6 | 6.4 pM
